Experimental data from IntAct's records for PubMed 22484091.

How the values were obtained:
brox_human BROX [1] = target: brox_human BROX (UniProt Q5VW32)
brox_human BROX [2] = target: brox_human BROX (UniProt Q5VW32); remark: listed apart in the source

Chain of brox_human BROX (Q5VW32 whole entry): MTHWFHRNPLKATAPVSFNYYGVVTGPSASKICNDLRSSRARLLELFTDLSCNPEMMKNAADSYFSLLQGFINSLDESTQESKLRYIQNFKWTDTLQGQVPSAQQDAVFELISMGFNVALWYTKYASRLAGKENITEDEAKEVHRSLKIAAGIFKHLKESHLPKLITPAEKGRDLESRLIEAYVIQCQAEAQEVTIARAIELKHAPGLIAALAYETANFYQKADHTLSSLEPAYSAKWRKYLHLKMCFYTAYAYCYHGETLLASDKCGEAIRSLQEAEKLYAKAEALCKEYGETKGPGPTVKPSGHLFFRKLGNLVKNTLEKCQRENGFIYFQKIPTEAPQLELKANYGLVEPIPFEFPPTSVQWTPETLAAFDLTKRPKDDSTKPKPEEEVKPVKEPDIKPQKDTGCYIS
Chain of Charged multivesicular body protein 5 (Homo sapiens), Q9NZZ3-1 P214G (Q9NZZ3 whole entry P214G): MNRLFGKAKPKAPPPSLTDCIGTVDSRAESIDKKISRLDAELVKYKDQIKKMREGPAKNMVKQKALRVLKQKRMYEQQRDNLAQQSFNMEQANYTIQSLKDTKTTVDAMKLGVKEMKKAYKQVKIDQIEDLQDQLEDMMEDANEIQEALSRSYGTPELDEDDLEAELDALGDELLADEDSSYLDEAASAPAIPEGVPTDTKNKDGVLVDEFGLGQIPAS
Chain of Charged multivesicular body protein 5 (Homo sapiens), Q9NZZ3-1 F211A (Q9NZZ3 whole entry F211A): as the sequence (Q9NZZ3 whole entry P214G) above, with F211A, G214P counted along it
Chain of Charged multivesicular body protein 5 (Homo sapiens), Q9NZZ3-1 L213A (Q9NZZ3 whole entry L213A): as the sequence (Q9NZZ3 whole entry P214G) above, with L213A, G214P counted along it

Substance | effect of a mutation on the interaction (brox_human BROX [1]) | effect of a mutation on the interaction (brox_human BROX [2])
Charged multivesicular body protein 5 (Homo sapiens), Q9NZZ3-1 F211A | decreasing interaction strength | disrupting interaction strength
Charged multivesicular body protein 5 (Homo sapiens), Q9NZZ3-1 L213A | disrupting interaction strength | 
Charged multivesicular body protein 5 (Homo sapiens), Q9NZZ3-1 P214G | decreasing interaction strength | disrupting interaction strength
